Data as given in patent US7604932B2, “Assay for tissue factor in a sample” (Haematologic Technologies, Inc., priority 2002, dated 2009).

Key:
[1] = biological target: fVIIa (Homo sapiens, UniProt P08709); test: Fluorogenic TF assay of relipidated TF with 2 nM fVIIa and D-FPR-(n-butyl)ANSN, compared to the FIG. 2 calibration curve; format: biochemical; conditions: 250 pM TF to 500 nM PCPS (75% PC, 25% PS); 2 nM fVIIa; 2 mM CaCl2, pH 7.4; 50 μM D-FPR-(n-butyl)ANSN
Procedure: Concentrations of TF were varied (0-500 pM) and incubated with 2 nM fVIIa in HBS pH 7.4, containing 2 mM Calcium Chloride (CaCl2), for 10 minutes at room temperature. Next, 50 μM D-FPR-(n-butyl)ANSN was added. Substrate hydrolysis was then monitored continuously for five minutes in a fluorometer at an excitation wavelength of 350 nm and an emission wavelength of 470 nm. The rates of substrate hydrolysis were determined for each TF concentration tested. The rate of hydrolysis by 2 nM fVIIa alone was measured and subtracted from the rates observed in the presence of TF. FIG. 2 is a graph of a calibration line based on these rates of hydrolysis at various TF concentrations.
In this example the preparation for TF employed in Example 3 was relipidated into phospholipid (PCPS) vesicles, composed of 75% phosphatidylcholine (PC) and 25% phosphatidylserine (PS). Relipidated TF, 250 pM TF to 500 nM PCPS, was incubated with 2 nM fVIIa in HBS, 2 mM CaCl2 pH 7.4 for ten minutes at room temperature. Next, 50 μM D-FPR-(n-butyl)ANSN was added. Rates of hydrolysis were determined and the rate of hydrolysis by 2 nM fVIIa alone was measured and subtracted from the rates observed in the presence of TF. The net rate of hydrolysis was then compared to the FIG. 2 calibration curve.

[2] = biological target: factor VIIa (Homo sapiens, UniProt P08709); test: Fluorogenic TF cofactor activity assay with excess factor VIIa and D-FPR-(n-butyl)ANSN, read against the units/ml standard curve (FIG. 3); format: biochemical
Chain of factor VIIa (P08709 61-212 limits assumed): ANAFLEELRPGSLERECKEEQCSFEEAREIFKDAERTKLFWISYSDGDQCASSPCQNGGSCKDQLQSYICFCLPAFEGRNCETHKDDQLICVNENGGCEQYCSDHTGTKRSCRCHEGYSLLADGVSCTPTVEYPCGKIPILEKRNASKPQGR
Chain of factor VIIa (P08709 213-466 limits assumed): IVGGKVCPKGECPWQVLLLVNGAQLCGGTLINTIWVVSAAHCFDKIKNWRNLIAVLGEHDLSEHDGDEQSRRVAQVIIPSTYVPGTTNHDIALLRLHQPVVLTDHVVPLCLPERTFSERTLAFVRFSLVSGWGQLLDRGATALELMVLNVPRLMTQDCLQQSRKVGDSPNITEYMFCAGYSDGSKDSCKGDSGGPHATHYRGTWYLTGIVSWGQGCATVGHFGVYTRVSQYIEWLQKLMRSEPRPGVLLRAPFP
Chain of factor VIIa (P13726 33-295 partner): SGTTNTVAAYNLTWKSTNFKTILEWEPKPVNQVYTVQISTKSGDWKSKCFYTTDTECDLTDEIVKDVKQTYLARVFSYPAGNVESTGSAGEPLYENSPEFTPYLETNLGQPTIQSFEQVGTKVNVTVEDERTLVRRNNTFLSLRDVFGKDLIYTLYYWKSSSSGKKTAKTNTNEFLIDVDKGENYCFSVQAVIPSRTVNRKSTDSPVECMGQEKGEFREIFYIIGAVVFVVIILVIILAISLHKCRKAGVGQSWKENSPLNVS
Procedure: A standardized preparation of recombinant human TF with a cofactor activity of 241 units/ml (specific activity of 3906 units/milligram) was serially diluted to create stock assay standards in the range of 8 to 0.25 units/ml. One hundred microliters of each stock standard was combined with 50 microliters of 120 nM factor VIIa. Subsequently 50 microliters of 150 uM D-FPR-(n-butyl)ANSN was added and the rate of substrate hydrolysis was measured in a fluorometer at an excitation wavelength of 350 nm and an emission wavelength of 470 nm. A standard curve was generated in FIG. 3 by plotting the change in fluorescent intensity over time versus the concentration of TF (in units/ml). In a similar manner, a sample of TF (0.8 mg/ml) with an unknown amount of cofactor activity was assayed for comparison to the standard. After correcting for assay dilution, the unknown sample returned an assay value of 2803 units per milliliter, and thus a specific activity of 3504 units per milligram. Consequently, this allows for comparison of different preparations of TF using their specific activity, which is a direct indication of quality and functionality.

[3] = standardized preparation used as assay standard

Chain of fVIIa (P08709 61-212 limits assumed): as the sequence (P08709 61-212 limits assumed) above
Chain of fVIIa (P08709 213-466 limits assumed): as the sequence (P08709 213-466 limits assumed) above
Chain of fVIIa (P13726 33-295 partner): as the sequence (P13726 33-295 partner) above

Relipidated TF: TF preparation of Example 3 relipidated into PCPS vesicles (75% phosphatidylcholine, 25% phosphatidylserine)
TF added to the relipidation mixture expressed as functional TF [1]: 35-40%

recombinant human TF: standardized preparation of recombinant human tissue factor used as assay standard
cofactor activity [2, 3]: 241 units/ml
specific activity [2, 3]: 3906 units/milligram

sample of TF: sample of tissue factor (0.8 mg/ml) with an unknown amount of cofactor activity
specific activity ([2]; TF sample 0.8 mg/ml): 3504 units per milligram
cofactor activity, assay value after correcting for assay dilution ([2]; TF sample 0.8 mg/ml, 120 nM factor VIIa stock, 150 uM D-FPR-(n-butyl)ANSN stock): 2803 units per milliliter
